{"source": "patent US20200262910A1", "about": "(SINGAPORE HEALTH SERVICES PTE, published 2020)", "key": {"[1]": {"target": "T1, Human IL11RA (10252-H08H, SinoBiological) (human, UniProt Q14626 23-365)", "T1 construct": "also called hIL11RA", "T1 sequence": "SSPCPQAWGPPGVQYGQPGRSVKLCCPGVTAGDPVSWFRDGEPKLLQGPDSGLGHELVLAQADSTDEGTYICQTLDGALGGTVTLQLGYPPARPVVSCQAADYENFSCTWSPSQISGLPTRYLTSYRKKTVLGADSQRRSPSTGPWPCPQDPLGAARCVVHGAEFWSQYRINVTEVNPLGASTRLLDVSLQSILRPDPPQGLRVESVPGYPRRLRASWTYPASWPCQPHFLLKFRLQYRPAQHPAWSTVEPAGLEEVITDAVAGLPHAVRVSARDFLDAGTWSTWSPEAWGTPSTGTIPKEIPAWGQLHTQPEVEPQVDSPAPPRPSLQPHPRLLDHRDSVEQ", "experiment": "SPR (BIAcore T200): ligand hIL11 immobilized, analyte hIL11RA, 1:1 Langmuir fit", "protocol": "(§1) SPR measurements were performed on a BIAcore T200 (GE Healthcare) at 25° C. Buffers were degassed and filter-sterilized through 0.2 μm filters prior to use. RhIL11 or rmIl11 was immobilized onto a carboxymethylated dextran (CM5) sensor chip using standard amine coupling chemistry. For kinetic analysis, a concentration series (3.125 nM to 100 nM) of human IL11RA or mouse Il11ra was injected over the rhIL11, rmIl11 and reference surfaces at a flow rate of 40 μl min⁻¹. All the analytes were dissolved in HBS-EP+ (BR100669, GE Healthcare) containing 1 mg ml⁻¹ BSA. The association and dissociation were measured for 150 s and 200 s respectively. After each analyte injection, the surface was regenerated by a 30 s injection of Glycine pH2.5, followed by a 5 min stabilisation period. All sensorgrams were aligned and double-referenced. Affinity and kinetic constants were determined by fitting the corrected sensorgrams with the 1:1 Langmuir model using BIAevaluation v3.0 software (GE Healthcare). The equilibrium binding constant KD was determined by the ratio of the binding rate constants kd/ka."}, "[2]": {"target": "T2, Mouse IL11RA (50075-M08H, SinoBiological); mouse interleukin 11 receptor alpha chain 1 (mouse, UniProt Q64385 24-367)", "T2 construct": "also called mIL11RA1; IL11RA1", "T2 sequence (looked up)": "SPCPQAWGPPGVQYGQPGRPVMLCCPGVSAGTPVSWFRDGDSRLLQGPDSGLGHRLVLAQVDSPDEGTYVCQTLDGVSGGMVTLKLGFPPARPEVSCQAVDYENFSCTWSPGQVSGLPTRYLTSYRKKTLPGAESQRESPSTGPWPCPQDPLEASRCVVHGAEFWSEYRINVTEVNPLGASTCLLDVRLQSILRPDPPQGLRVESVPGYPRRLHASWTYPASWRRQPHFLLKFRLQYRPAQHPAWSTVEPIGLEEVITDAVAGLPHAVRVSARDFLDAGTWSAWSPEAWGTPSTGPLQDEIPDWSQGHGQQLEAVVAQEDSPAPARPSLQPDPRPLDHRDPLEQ", "experiment": "SPR (BIAcore T200): ligand hIL11 immobilized, analyte mIL11RA, 1:1 Langmuir fit", "protocol": "as §1"}, "[3]": {"target": "T2, Mouse IL11RA (50075-M08H, …)", "experiment": "SPR (BIAcore T200), IL11 immobilized on CM5, receptor as analyte, 1:1 Langmuir fit; rhIL11 (human ligand) on mouse IL11RA1", "protocol": "as §1"}, "[4]": {"target": "T1, Human IL11RA (10252-H08H, …)", "experiment": "SPR (BIAcore T200, 25 C): rhIL11 immobilized on a CM5 chip, human IL11RA injected as analyte (3.125 to 100 nM), 1:1 Langmuir fit", "protocol": "as §1"}, "[5]": {"target": "T2, Mouse IL11RA (50075-M08H, …)", "experiment": "SPR (BIAcore T200, 25 C): rhIL11 immobilized on a CM5 chip, mouse IL11RA injected as analyte (3.125 to 100 nM), 1:1 Langmuir fit", "protocol": "as §1"}, "[6]": {"target": "T2, Mouse IL11RA (50075-M08H, …)", "experiment": "SPR (BIAcore T200): ligand mIL11 immobilized, analyte mIL11RA, 1:1 Langmuir fit", "protocol": "as §1"}, "[7]": {"target": "T2, Mouse IL11RA (50075-M08H, …)", "experiment": "SPR (BIAcore T200), IL11 immobilized on CM5, receptor as analyte, 1:1 Langmuir fit; rmIL11 (mouse ligand) on mouse IL11RA1", "protocol": "as §1"}, "[8]": {"target": "T2, Mouse IL11RA (50075-M08H, …)", "experiment": "SPR (BIAcore T200, 25 C): rmIL11 immobilized on a CM5 chip, mouse IL11RA injected as analyte (3.125 to 100 nM), 1:1 Langmuir fit", "protocol": "as §1"}}}
{"binder": "Recombinant human IL11 (rhIL11, UniProtKB:P20809, Genscript) (ligand, It was amine-coupled to a CM5 chip in SPR) PGPPPGPPRVSPDPRAELDSTVLLTRSLLADTRQLAAQLRDKFPADGDHNLDSLPTLAMSAGALGALQLPGVLTRLRADLLSYLRHVQWLRRAGGSSLKTLEPELGTLQARLDRLLRRLQLLMSRLALPQPPPDPPAPPLAPPSSAWGGIRAAHAILGGLHLTLDWAVRGLLLLKTRL", "values": [{"measurement": "Kd", "setting": "[1]", "result": 45.3, "unit": "nM"}, {"measurement": "koff", "setting": "[1]", "result": 0.0204, "unit": "s⁻¹"}, {"measurement": "kon", "setting": "[1]", "result": 451000, "unit": "M⁻¹ s⁻¹"}, {"measurement": "Kd", "setting": "[2]", "result": 72.3, "unit": "nM"}, {"measurement": "koff", "setting": "[2]", "result": 0.012, "unit": "s⁻¹"}, {"measurement": "kon", "setting": "[2]", "result": 166000, "unit": "M⁻¹ s⁻¹"}, {"measurement": "Kd", "setting": "[3]", "result": 72, "unit": "nM"}, {"measurement": "Kd", "setting": "[4]", "result": 45.3, "unit": "nM"}, {"measurement": "Kd", "setting": "[5]", "result": 72.3, "unit": "nM"}]}
{"binder": "Recombinant mouse IL11 (rmIL11, UniProtKB: P47873, Genscript) (ligand, UniProt P47873 22-199, looked up, Amine-coupled to a CM5 chip in SPR; also called biotinylated mouse Il11) PGPPAGSPRVSSDPRADLDSAVLLTRSLLADTRQLAAQMRDKFPADGDHSLDSLPTLAMSAGTLGSLQLPGVLTRLRVDLMSYLRHVQWLRRAGGPSLKTLEPELGALQARLERLLRRLQLLMSRLALPQAAPDQPVIPLGPPASAWGSIRAAHAILGGLHLTLDWAVRGLLLLKTRL", "values": [{"measurement": "Kd", "setting": "[6]", "result": 94.1, "unit": "nM"}, {"measurement": "koff", "setting": "[6]", "result": 0.0115, "unit": "s⁻¹"}, {"measurement": "kon", "setting": "[6]", "result": 122000, "unit": "M⁻¹ s⁻¹"}, {"measurement": "Kd", "setting": "[7]", "result": 94, "unit": "nM"}, {"measurement": "Kd", "setting": "[8]", "result": 94.1, "unit": "nM"}]}
